Earlier results as cited in PMC3184957, “Improving a Natural CaMKII Inhibitor by Random and Rational Design” (PLoS ONE, 2011).

Biological target: T1, CaMKIIα (Rattus norvegicus, UniProt P11275)
T1 construct: made in house; host or cells: baculovirus/Sf9 (CaMKII); bacteria (CaM)
Settings: background statement of the abstract, no reference given; read-out: IC50 of CaMKII inhibition by CaM-KIIN
Description: Background CaM-KIIN has evolved to inhibit stimulated and autonomous activity of the Ca^2+/calmodulin (CaM)-dependent protein kinase II (CaMKII) efficiently, selectively, and potently (IC50 ∼100 nM). The CN class of peptides, derived from the inhibitory region of CaM-KIIN, provides powerful new tools to study CaMKII functions. The goal of this study was to identify the residues required for CaMKII inhibition, and to assess if artificial mutations could further improve the potency achieved during evolution. Methodology/Principal Findings First, the minimal region with full inhibitory potency wa ...

IC50: ~100 nM
B1: CaM-KIIN: natural CaMKII inhibitor protein expressed in brain (protein, UniProt Q7Z7J9 1-78, looked up)
Calcium/calmodulin-dependent …: MSEVLPYGDEKLSPYGDGGDVGQIFSCRLQDTNNFFGAGQNKRPPKLGQIGRSKRVVIEDDRIDDVLKNMTDKAPPGV
